According to paper PMC2810717:

Substrate: CC(=O)NCCCNCCCCNCCCN
Assay: purified protein
Assay type: biochemical, Homo sapiens
Details: FAD; pH 8.3; 25.0 °C

B1: spermine oxidase (SMO) (Homo sapiens) (protein)
chain: MQSCESSGDSADDPLSRGLRRRGQPRVVVIGAGLAGLAAAKALLEQGFTDVTVLEASSHIGGRVQSVKLGHATFELGATWIHGSHGNPIYHLAEANGLLEETTDGERSVGRISLYSKNGVACYLTNHGRRIPKDVVEEFSDLYNEVYNLTQEFFRHDKPVNAESQNSVGVFTREEVRNRIRNDPDDPEATKRLKLAMIQQYLKVESCESSSHSMDEVSLSAFGEWTEIPGAHHIIPSGFMRVVELLAEGIPAHVIQLGKPVRCIHWDQASARPRGPEIEPRGEGDHNHDTGEGGQGGEEPRGGRWDEDEQWSVVVECEDCELIPADHVIVTVSLGVLKRQYTSFFRPGLPTEKVAAIHRLGIGTTDKIFLEFEEPFWGPECNSLQFVWEDEAESHTLTYPPELWYRKICGFDVLYPPERYGHVLSGWICGEEALVMEKCDDEAVAEICTEMLRQFTGNPNIPKPRRILRSAWGSNPYFRGSYSYTQVGSSGADVEKLAKPLPYTESSKTAPMQVLFSGEATHRKYYSTTHGALLSGQREAARLIEMYRDLFQQGT
Km: 492 ± 97 µM
